# Results reported in IntAct's records for PubMed 16014621.
# B1: Septum site-determining protein minD homolog, chloroplastic (Arabidopsis thaliana (Mouse-ear cress)), Q9MBA2 (parent)
# chain: MASLRLFSTNHQSLLLPSSLSQKTLISSPRFVNNPSRRSPIRSVLQFNRKPELAGETPRIVVITSGKGGVGKTTTTANVGLSLARYGFSVVAIDADLGLRNLDLLLGLENRVNYTCVEVINGDCRLDQALVRDKRWSNFELLCISKPRSKLPMGFGGKALEWLVDALKTRPEGSPDFIIIDCPAGIDAGFITAITPANEAVLVTTPDITALRDADRVTGLLECDGIRDIKMIVNRVRTDMIKGEDMMSVLDVQEMLGLSLLGVIPEDSEVIRSTNRGFPLVLNKPPTLAGLAFEQAAWRLVEQDSMKAVMVEEEPKKRGFFSFFGG
# partner: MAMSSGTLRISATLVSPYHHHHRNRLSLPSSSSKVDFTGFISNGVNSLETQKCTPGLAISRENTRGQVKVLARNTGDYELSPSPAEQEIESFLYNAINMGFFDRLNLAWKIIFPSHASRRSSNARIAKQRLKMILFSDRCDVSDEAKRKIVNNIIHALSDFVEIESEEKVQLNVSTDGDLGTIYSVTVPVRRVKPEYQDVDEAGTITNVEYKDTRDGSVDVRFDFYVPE
# Variants of: B1
# Conditions: with mine1_arath MINE1, Q9C4Z7
row,effect of a mutation on the interaction,Variant
1,decreasing interaction,K72A
